According to patent US20260146107A1 (ALLIGATOR BIOSCIENCE, published 2026):
Numbering of substitutions follows the chain as printed. One block for each binder: values may come before it.

Tests used:
[1] = biological target: human CD40 expressed on cells (CD40 reporter cells, HEK Blue CD40L cells, primary B cells, tumour APCs) (human, UniProt P25942 21-277); assay: cell-based or functional assay
[2] = biological target: T1, human CEACAM5, recombinant (R&D Systems #4128-CM-050) (human, UniProt P06731 35-685); assay: Octet BLI, captured bsAb, soluble antigen, 1:1 fit
T1 construct: Bought; coated in ELISA and used as monomeric analyte in Octet; also called hCEACAM-5; Human CEACAM5-His; not shown: His tag
T1 sequence (looked up): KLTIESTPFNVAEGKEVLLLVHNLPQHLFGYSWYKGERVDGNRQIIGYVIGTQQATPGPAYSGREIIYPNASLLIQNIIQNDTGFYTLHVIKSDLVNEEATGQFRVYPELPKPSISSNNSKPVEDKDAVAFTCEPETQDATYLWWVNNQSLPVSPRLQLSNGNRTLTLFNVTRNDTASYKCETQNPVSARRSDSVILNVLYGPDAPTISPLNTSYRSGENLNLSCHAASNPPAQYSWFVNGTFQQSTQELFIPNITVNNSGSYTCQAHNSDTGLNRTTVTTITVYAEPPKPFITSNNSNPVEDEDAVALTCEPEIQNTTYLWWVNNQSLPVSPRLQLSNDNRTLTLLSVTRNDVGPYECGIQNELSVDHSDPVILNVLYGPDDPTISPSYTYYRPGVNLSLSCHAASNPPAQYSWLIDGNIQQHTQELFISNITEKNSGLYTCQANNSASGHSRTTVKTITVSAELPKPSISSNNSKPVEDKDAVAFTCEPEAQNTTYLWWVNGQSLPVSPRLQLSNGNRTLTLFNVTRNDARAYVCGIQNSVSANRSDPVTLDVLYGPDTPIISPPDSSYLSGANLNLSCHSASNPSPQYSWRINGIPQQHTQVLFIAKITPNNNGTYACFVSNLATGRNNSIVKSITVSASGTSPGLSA
Procedure: (§1) Kinetic measurements were performed in the Octet RED96 platform using several different setups. […] Monomeric human CD40-His-Avi tag (Acro Biosystems #CD0-H5228), monomeric Human CEACAM5-His (R&D Systems #4128-CM-050) or monomeric Cynomolgus CEACAM5-His (Sino Biological #90891-C08H) were ½ serially diluted in 1× kinetic buffer (Sartorius) starting at 500 nM or 100 nM. […] Binding kinetics was studied in 1× kinetic buffer where association was allowed for 100 sec, 300 sec or 600 sec followed by dissociation for 100 sec, 300 sec or 3600 sec. Sensor tips were regenerated with 10 mM Glycine pH 1.7. Data generated were referenced by subtracting blank or parallel buffer blank, the baseline was aligned to the y-axis, inter-step correction by alignment against dissociation was performed and the data was smoothed by Savitzky-Golay filter in the data analysis software (v9.0.0.14). The processed data was fitted using a 1:1 Langmuir binding model with R² or X² as a measurement of fitting accuracy.
Association was measured for 100 sec and dissociation for 300 sec.

[3] = biological target: T1, human CEACAM5, recombinant (R&D Systems …); assay: Octet BLI, captured bsAb, monomeric CEACAM5 in solution, 1:1 fit
Procedure: as §1
Association was measured for 100 sec and dissociation was measured for 100 sec.

[4] = biological target: T1, human CEACAM5, recombinant (R&D Systems …); assay: dual-target ELISA: hCEACAM-5 coated, bsAb titrated, detected with biotinylated hCD40-muIg and streptavidin-HRP, luminescence; signal needs both targets bound
Procedure: (§2) 96-well plates were coated with 0.5 μg/mL antigen, hCEACAM-1 (2244-CM-050, R&D Systems), hCEACAM-5 (4128-CM-050, R&D Systems), hCEACAM-6 (3934-CM-050, R&D Systems) or CEACAM-8 (9639-CM-050, R&D Systems) in PBS over night at 4° C. After washing in PBS/0.05% Tween 20 (PBST), the plates were blocked with PBST, 2% BSA for at least 30 minutes at room temperature before a second round of washing. RUBY bsAbs, diluted in PBST, 0.5% BSA, were then added and allowed to bind for at least 1 hour at room temperature. […] Finally, a final round of washing was performed and bound complexes detected using SuperSignal Pico Luminescent as substrate and luminescence signals were measured using Fluostar Optima.

[5] = biological target: T2, biotinylated human CEACAM5-His (Acro Biosystems #CE5-H82E0) (human, UniProt P06731 35-685, biotinylated (site not stated)); assay: Octet BLI, captured CEACAM5-biotin, bsAb in solution, 1:1 fit
T2 construct: also called CEACAM5-biotin; captured human CEACAM5-biotin; not shown: His tag
T2 sequence (looked up): T1 sequence (looked up)
Procedure: as §1
Association was measured for 100 sec and dissociation measured for 100 sec.

[6] = biological target: T1, human CEACAM5, recombinant (R&D Systems …); assay: ELISA, antigen coated at 0.5 µg/mL, bsAb titrated, anti-human kappa-HRP, luminescence
Procedure: as §2

Chain of human CD40 expressed on cells (CD40 reporter cells, HEK Blue CD40L cells, primary B cells, tumour APCs) (P25942 21-277): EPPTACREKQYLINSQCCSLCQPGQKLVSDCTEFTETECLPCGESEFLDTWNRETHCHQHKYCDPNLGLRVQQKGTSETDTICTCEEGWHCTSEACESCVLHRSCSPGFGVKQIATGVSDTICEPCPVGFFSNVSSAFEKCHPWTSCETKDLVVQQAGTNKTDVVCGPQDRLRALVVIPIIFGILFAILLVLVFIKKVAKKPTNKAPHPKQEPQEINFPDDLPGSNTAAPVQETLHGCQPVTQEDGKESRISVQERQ

B1: AC_05339 (bispecific antibody)
heavy 1: not shown
light: DIQMTQSPSSLSASVGDRVTITCRASQSISSYLNWYQEKPGKAPKLLIYAASSLQSGVPSRFSGSGSGTDFTLTISSLQPEDFATYYCQQAGNPHTFGQGTKLEIKRTVAAPSVFIFPPSDEQLKSGTASVVCYLNNFYPREAKVQWKVDNALQSGNSQESVTEQDSKDSTYSLWSTLTLSKADYEKHKVYACEVTHQGLSSPVTKSFNRGEC
heavy 2: EVQLLESGGGLVQPGGSLRLSCAASGFTFSTYGMHWVREAPGKGLEWLSYISGGSSYIFYADSVRGRFTISRDNSENALYLQMNSLRAEDTAVYYCARILRGGSGMDLWGQGTLVTVSSASTKGPSVFPLAPSSKSTSGGTAALGCLVKDYFPEPVTVSWNSGALTSGVHTFPAVLQSSGLYSLSSVVEVPSSSLGTQTYICNVNHKPSNTKVDKKVEPKSC
notes: RUBY format, CEACAM5xCD40; also called AC_5339
EC50 of SEAP release, HEK Blue CD40L reporter cells, bsAb crosslinked to CHO-CEACAM5 cells, 0 Raji sink cells/well [1]: 0.03 nM
EC50 of SEAP release, same assay, 10 000 Raji sink cells/well [1]: 0.05 nM
EC50 of SEAP release, same assay, 30 000 Raji sink cells/well [1]: 0.08 nM
EC50 of SEAP release, same assay, 90 000 Raji sink cells/well [1]: 0.23 nM
Kd [2]: < 0.001 nM
koff [2]: < 1e-07 s⁻¹
kon [2]: 520000 M⁻¹ s⁻¹
Kd [3]: 1.8 nM
koff [3]: 0.00042 s⁻¹
kon [3]: 240000 M⁻¹ s⁻¹
EC50 (read off the curve) [4]: ~0.3 nM

B2: Multi44 (bispecific antibody)
heavy 1: not shown
light: B1 light with A91W, N93Y, P94L, H95L
heavy 2: B1 heavy 2 with R65K, E76K, A78T, S185T
notes: Optimised RUBY format, CEACAM5xCD40
EC50 of SEAP release, HEK Blue CD40L reporter cells, bsAb crosslinked to CHO-CEACAM5 cells, 0 Raji sink cells/well [1]: 0.02 nM
EC50 of SEAP release, same assay, 10 000 Raji sink cells/well [1]: 0.05 nM
EC50 of SEAP release, same assay, 30 000 Raji sink cells/well [1]: 0.08 nM
EC50 of SEAP release, same assay, 90 000 Raji sink cells/well [1]: 0.16 nM
Kd [5]: < 0.001 nM
koff [5]: < 1e-07 s⁻¹
kon [5]: 150000 M⁻¹ s⁻¹
Kd [3]: 13 nM
koff [3]: 0.0023 s⁻¹
kon [3]: 180000 M⁻¹ s⁻¹
EC50 (read off the curve) [6]: ~0.5 nM
EC50 (read off the curve) [4]: ~0.8 nM

B4: Multi38 (bispecific antibody)
heavy 1: not shown
light: not shown
heavy 2: EVQLLESGGGLVQPGGSLRLSCAASGFTFGDHAMSWVREAPGKGLEWVSAISGYGHSTGYADSVKGRFTISRDNSKNTLYLQMNSLRAEDTAVYYCARNHYRVGLDYWGQGTLVTVSSASTKGPSVFPLAPSSKSTSGGTAALGCLVKDYFPEPVTVSWNSGALTSGVHTFPAVLQSSGLYSLTSVVEVPSSSLGTQTYICNVNHKPSNTKVDKKVEPKSC
notes: Optimised RUBY format, CD40xCEACAM5 (Fab8); also called Muli38
EC50 (read off the curve) [6]: ~2 nM

Second part, the binder after the results:

Kd [3]: < 0.001 nM
koff [3]: < 1e-07 s⁻¹
kon [3]: 24000 M⁻¹ s⁻¹
EC50 (read off the curve) [6]: ~3 nM
B3: Multi48 (bispecific antibody)
heavy 1: not shown
light: DIQMTQSPSSLSASVGDRVTITCRASQSISSYLNWYQEKPGKAPKLLIYAASSLQSGVPSRFSGSGSGTDFTLTISSLQPEDFATYYCQQYGRNPPTFGQGTKLEIKRTVAAPSVFIFPPSDEQLKSGTASVVCYLNNFYPREAKVQWKVDNALQSGNSQESVTEQDSKDSTYSLWSTLTLSKADYEKHKVYACEVTHQGLSSPVTKSFNRGEC
heavy 2: B4 heavy 2
notes: Optimised RUBY format, CD40xCEACAM5

Kd [3]: < 0.001 nM
koff [3]: < 1e-07 s⁻¹
kon [3]: 28000 M⁻¹ s⁻¹
EC50 (read off the curve) [6]: ~3 nM
B5: Multi49 (bispecific antibody)
heavy 1: not shown
light: B3 light
heavy 2: EVQLLESGGGLVQPGGSLRLSCAASGFTFYDHAMSWVREAPGKGLEWVSAISGSYGSTGYADSVKGRFTISRDNSKNTLYLQMNSLRAEDTAVYYCARWGGWAGDIDYWGQGTLVTVSSASTKGPSVFPLAPSSKSTSGGTAALGCLVKDYFPEPVTVSWNSGALTSGVHTFPAVLQSSGLYSLTSVVEVPSSSLGTQTYICNVNHKPSNTKVDKKVEPKSC
notes: as for B3
